The text below walks through data of patent US20230220439A1 (HUBEL UNIVERSITY, published 2023).

What all share (assay): Native-PAGE of mixed CL and Im proteins, 30 min at room temperature
One experiment concerns the target T1, Im7 protein (Escherichia coli, UniProt Q03708 1-87).
T1 construct: Expressed from pET23a in E. coli BL21(DE3) and purified on nickel beads; a tag is not described
T1 sequence: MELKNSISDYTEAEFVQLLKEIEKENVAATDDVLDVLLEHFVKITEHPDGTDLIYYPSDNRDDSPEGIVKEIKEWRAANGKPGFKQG

The target of a further experiment is T2, Im8 protein (Escherichia coli, UniProt P09881 1-85).
T2 construct: Expressed from pET23a in E. coli BL21(DE3) and purified on nickel beads; a tag is not described
T2 sequence: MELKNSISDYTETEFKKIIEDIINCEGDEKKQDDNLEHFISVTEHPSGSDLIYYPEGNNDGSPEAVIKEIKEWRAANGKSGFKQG

Another experiment addresses T3, Im9 protein (Escherichia coli, UniProt P13479 1-86).
T3 construct: Expressed from pET23a in E. coli BL21(DE3) and purified on nickel beads; a tag is not described

The target of the next experiment is T4, Im2 protein (Escherichia coli, UniProt P04482 1-86).
T4 construct: Expressed from pET23a in E. coli BL21(DE3) and purified on nickel beads; a tag is not described; also called immunity 2
T4 sequence: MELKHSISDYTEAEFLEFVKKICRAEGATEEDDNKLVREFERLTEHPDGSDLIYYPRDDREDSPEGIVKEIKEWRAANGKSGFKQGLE

T3 sequence (P13479 whole entry): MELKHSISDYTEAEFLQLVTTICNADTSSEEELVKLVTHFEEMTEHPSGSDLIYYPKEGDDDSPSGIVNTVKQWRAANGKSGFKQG

B1: CL7 protein (other)
chain: MSKSNEPGKATGEGKPVNNKWLNNAGKDLGSPVPDRIANKLRDKEFESFDDFRETFWEEVSKDPELSKQFSRNNNDRMKVGKAPKTRTQDVSGKRTSFELNHQKPIEQNGGVYDMDNISVVTPKRNIDIEG
notes: Expressed from pET23a in E. coli BL21(DE3) and purified on nickel beads; a tag is not described
Turning to B1, the binding result with Im7 protein is listed as “binds”.

B2: CL8 protein (other)
chain: MSKSNEPGKATGEGKPVGDKWLDDAGKDSGAPIPDRIADKLRDKEFENFDDFRETFWEEVSKDPELSKQFNPGNKKRLSQGLAPRARNKDTVGGRRSFELNHQKPIEQDGGVYDMDNLRITTPKRNIDIEG
notes: as for B1
Turning to B2, the binding result in the experiment with Im8 protein is “binds”.

B3: CL9 protein (other)
chain: MSKSNEPGKATGEGKPVGDKWLDDAGKDSGAPIPDRIADKLRDKEFESFDDFRETVWEEVSKDPELSKNLNPSNKSSVSKGYSPFTPKNQQVGGRKVYELNHQKPIEQGGEVYDMDNIRVTTPKRNIDIEG
notes: as for B1
Regarding B3, the binding result in the experiment with Im9 protein was “binds”.

B4: CL2 protein (other)
chain: MSKSNEPGKATGEGKPVGDKWLDDAGKDSGAPIPDRIADKLRDKEFENFDDFRETFWEEVSKDPDLSKQFKGSNKTNIQKGKAPFARKKDQVGGRERFELNHQKPIEQDGGVYDMNNIRVTTPKRNIDIEG
notes: as for B1
With B4, the binding result with Im2 protein is given as “binds”.
